{"source": "paper PMC3217041", "about": "(Steroids, 2011)", "proteins": {"B1": {"name": "Human placental aromatase (cytochrome P450 aromatase, CYP19A1) (enzyme, UniProt P11511 1-503, looked up)", "chain": "MVLEMLNPIHYNITSIVPEAMPAATMPVLLLTGLFLLVWNYEGTSSIPGPGYCMGIGPLISHGRFLWMGIGSACNYYNRVYGEFMRVWISGEETLIISKSSSMFHIMKHNHYSSRFGSKLGLQCIGMHEKGIIFNNNPELWKTTRPFFMKALSGPGLVRMVTVCAESLKTHLDRLEEVTNESGYVDVLTLLRRVMLDTSNTLFLRIPLDESAIVVKIQGYFDAWQALLIKPDIFFKISWLYKKYEKSVKDLKDAIEVLIAEKRRRISTEEKLEECMDFATELILAEKRGDLTRENVNQCILEMLIAAPDTMSVSLFFMLFLIAKHPNVEEAIIKEIQTVIGERDIKIDDIQKLKVMENFIYESMRYQPVVDLVMRKALEDDVIDGYPVKKGTNIILNIGRMHRLEFFPKPNEFTLENFAKNVPYRYFQPFGFGPRGCAGKYIAMVMMKAILVTLLRRFHVKTLQGQCVESIQKIHDLSLHPDETKNMLEMIFTPRNSDRCLEH"}}, "target": "the molecule itself", "experiment": "crystal structure"}
{"protein": "B1", "values": [{"measurement": "binding result", "value": "binds"}]}
